Assay results: the Human Domainome abundance scans (Beltran et al. 2025)
± gives the uncertainty stated by the source.

B1: Far upstream element-binding protein 1, residues 184 to 257; numbered along this chain, Q96AE4 (parent)
chain: GNAVQEIMIPASKAGLVIGKGGETIKQLQERAGVKMVMIQDGPQNTGADKPLRITGDPYKVQQAKEMVLELIRD

Variants of: B1
Assay: abundance fitness (aPCA) (normalised: wild type 0, dead -1); higher = more abundant; growth selection in yeast, the domain comes from the species named
Settings: Homo sapiens

| Variant | abundance fitness |
| --- | --- |
| Y59E | 0.009 ± 0.032 |
| Y59F | -0.003 ± 0.05 |
| Y59G | 0.029 ± 0.026 |
| Y59D | 0.057 ± 0.042 |
| Y59A | 0.011 ± 0.029 |
| Y59C | -0.003 ± 0.044 |
| D49L | -0.052 ± 0.032 |
| D49F | -0.081 ± 0.053 |
| D49A | -0.029 ± 0.032 |
| D49Q | -0.096 ± 0.043 |
| D49I | -0.148 ± 0.046 |
| D49K | -0.087 ± 0.036 |
| D49P | -0.01 ± 0.038 |
| D49H | -0.012 ± 0.048 |
| D49N | -0.034 ± 0.045 |
| D49R | -0.129 ± 0.028 |
| D49Y | -0.015 ± 0.052 |
| D49V | -0.068 ± 0.03 |
| D49S | -0.077 ± 0.032 |
| D49G | -0.084 ± 0.026 |
| D49W | -0.114 ± 0.035 |
| D49T | -0.045 ± 0.035 |
| D49C | -0.057 ± 0.048 |
| L52W | -0.738 ± 0.044 |

| Variant | abundance fitness |
| --- | --- |
| L52D | -0.702 ± 0.07 |
| L52E | -0.956 ± 0.056 |
| L52C | -0.229 ± 0.047 |
| L52M | -0.047 ± 0.037 |
| L52S | -0.918 ± 0.047 |
| L52V | -0.145 ± 0.03 |
| L52A | -0.807 ± 0.041 |
| L52N | -0.746 ± 0.075 |
| L52K | -0.841 ± 0.057 |
| L52G | -0.886 ± 0.037 |
| L52Q | -0.97 ± 0.076 |
| L52I | -0.055 ± 0.049 |
| L52H | -0.853 ± 0.099 |
| L52T | -0.878 ± 0.053 |
| T46Y | -0.115 ± 0.055 |
| T46P | -0.012 ± 0.034 |
| T46C | -0.058 ± 0.049 |
| T46K | -0.066 ± 0.033 |
| T46L | -0.038 ± 0.03 |
| T46F | -0.085 ± 0.052 |
| T46V | -0.004 ± 0.032 |
| T46N | -0.074 ± 0.05 |
| T46H | -0.055 ± 0.055 |
| T46R | -0.046 ± 0.027 |

| Variant | abundance fitness |
| --- | --- |
| T46I | -0.062 ± 0.046 |
| T46W | -0.136 ± 0.035 |
| T46S | -0.04 ± 0.032 |
| T46A | -0.073 ± 0.033 |
| T46G | -0.024 ± 0.028 |
| T46Q | -0.022 ± 0.037 |
| T46M | -0.028 ± 0.038 |
| G47K | 0.061 ± 0.041 |
| G47V | -0.054 ± 0.032 |
| G47D | -0.043 ± 0.041 |
| G47R | -0.096 ± 0.028 |
| G47H | -0.167 ± 0.06 |
| G47W | -0.157 ± 0.035 |
| G47I | -0.168 ± 0.057 |
| G47M | -0.043 ± 0.042 |
| G47T | -0.018 ± 0.035 |
| G47L | -0.069 ± 0.031 |
| G47N | -0.034 ± 0.052 |
| G47Q | -0.027 ± 0.041 |
| G47A | -0.02 ± 0.031 |
| G47P | -0.108 ± 0.037 |
| G47S | -0.001 ± 0.031 |
| G47E | -0.038 ± 0.036 |
| G47F | -0.014 ± 0.053 |

| Variant | abundance fitness |
| --- | --- |
| G42C | -0.037 ± 0.04 |
| G42L | -0.158 ± 0.032 |
| G42M | -0.084 ± 0.04 |
| G42I | -0.052 ± 0.054 |
| G42S | 0.009 ± 0.031 |
| G42K | 0.049 ± 0.04 |
| G42N | -0.059 ± 0.054 |
| G42A | -0.028 ± 0.032 |
| G42F | -0.078 ± 0.056 |
| G42Y | 0.055 ± 0.061 |
| G42R | -0.022 ± 0.026 |
| G42D | -0.069 ± 0.046 |
| G42H | -0.082 ± 0.048 |
| G42E | 0.007 ± 0.033 |
| G42W | -0.33 ± 0.037 |
| G42P | -0.059 ± 0.035 |
| G42Q | -0.029 ± 0.042 |
| Q44D | 0.004 ± 0.047 |
| Q44P | 0.006 ± 0.037 |
| Q44H | 0.042 ± 0.052 |
| Q44L | -0.055 ± 0.032 |
| Q44C | -0.083 ± 0.043 |
| Q44M | -0.007 ± 0.04 |
| Q44K | 0.038 ± 0.036 |

| Variant | abundance fitness |
| --- | --- |
| Q44W | -0.088 ± 0.035 |
| Q44I | -0.046 ± 0.056 |
| Q44V | -0.067 ± 0.03 |
| Q44A | -0.008 ± 0.032 |
| Q44G | 0.007 ± 0.027 |
| Q44Y | -0.002 ± 0.06 |
| Q44R | -0.048 ± 0.028 |
| Q44N | 0.02 ± 0.048 |
| Q44F | -0.082 ± 0.053 |
| Q44E | -0.06 ± 0.034 |
| Q44S | -0.04 ± 0.032 |
| D57N | -0.083 ± 0.043 |
| D57Y | -0.208 ± 0.047 |
| D57L | -0.119 ± 0.031 |
| D57C | -0.093 ± 0.045 |
| D57M | -0.138 ± 0.038 |
| D57T | -0.028 ± 0.035 |
| D57A | -0.017 ± 0.029 |
| D57F | -0.285 ± 0.059 |
| D57P | -0.018 ± 0.039 |
| D57H | -0.022 ± 0.049 |
| D57V | -0.085 ± 0.029 |
| D57G | -0.218 ± 0.027 |
| D57E | 0.019 ± 0.029 |

| Variant | abundance fitness |
| --- | --- |
| D57Q | -0.018 ± 0.036 |
| D57W | -0.387 ± 0.037 |
| P51D | -0.358 ± 0.049 |
| P51E | -0.014 ± 0.039 |
| P51R | 0.007 ± 0.028 |
| P51K | -0.03 ± 0.039 |
| P51W | -0.066 ± 0.037 |
| P51Q | -0.108 ± 0.041 |
| P51C | -0.005 ± 0.044 |
| P51Y | -0.059 ± 0.048 |
| P51A | -0.011 ± 0.033 |
| P51H | -0.026 ± 0.045 |
| P51I | -0.086 ± 0.045 |
| P51T | -0.018 ± 0.035 |
| P51L | -0.057 ± 0.03 |
| P51F | -0.077 ± 0.042 |
| P51M | 0.028 ± 0.041 |
| P51N | -0.049 ± 0.055 |
| R53S | -0.148 ± 0.033 |
| R53D | -0.616 ± 0.063 |
| R53E | -0.116 ± 0.036 |
| R53C | -0.111 ± 0.048 |
| R53L | -0.075 ± 0.033 |
| R53F | -0.116 ± 0.056 |

| Variant | abundance fitness |
| --- | --- |
| R53G | -0.52 ± 0.03 |
| R53H | -0.046 ± 0.055 |
| R53Q | -0.009 ± 0.038 |
| R53W | -0.205 ± 0.037 |
| R53I | -0.049 ± 0.057 |
| R53M | -0.031 ± 0.044 |
| R53K | -0.025 ± 0.041 |
| R53P | -0.941 ± 0.062 |
| R53N | -0.257 ± 0.064 |
| R53T | 0.008 ± 0.047 |
| R53A | -0.14 ± 0.033 |
| Q40T | -0.059 ± 0.036 |
| Q40F | -0.027 ± 0.052 |
| Q40H | -0.146 ± 0.057 |
| Q40V | -0.052 ± 0.032 |
| Q40W | -0.086 ± 0.039 |
| Q40P | -0.052 ± 0.035 |
| Q40M | -0.085 ± 0.041 |
| Q40D | -0.008 ± 0.05 |
| Q40S | -0.042 ± 0.032 |
| Q40Y | -0.049 ± 0.061 |
| Q40C | -0.024 ± 0.049 |
| Q40E | -0.067 ± 0.037 |
